Target: TNFα (tumour necrosis factor alpha) (UniProt P01375 77-233, limits assumed)
Experiment: cell-based or functional assay

Sequence of TNFα (tumour necrosis factor alpha) (P01375 77-233 limits assumed): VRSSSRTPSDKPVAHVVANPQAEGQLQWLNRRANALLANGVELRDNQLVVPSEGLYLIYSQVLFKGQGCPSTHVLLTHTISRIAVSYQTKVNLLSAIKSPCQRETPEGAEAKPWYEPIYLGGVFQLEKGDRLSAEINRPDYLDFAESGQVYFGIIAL

| Binder | Relative potency: EC50X/EC50ESBA105, L929 cells [ratio EC50X/EC50ESBA105] |
| --- | --- |
| TB-H_F68V_F70L (scFv) scFv: DIVMTQSPSSLSASVGDRVTLTCTASQSVSNDVVWYQQRPGKAPKLLIYSAFNRYTGVPSRFSGRGYGTDFTLTISSLQPEDVAVYYCQQDYNSPRTFGQGTKLEVKRGGGGSGGGGSGGGGSSGGGSQVQLVQSGAEVKKPGASVKVSCTASGYTFTHYGMNWVRQAPGKGLEWMGWINTYTGEPTYADKFKDRVTLSLETSASTVYMELTSLTSDDTAVYYCARERGDAMDYWGQGTLVTVSS | 1.28 |
| TB-H_F70L (scFv) scFv: DIVMTQSPSSLSASVGDRVTLTCTASQSVSNDVVWYQQRPGKAPKLLIYSAFNRYTGVPSRFSGRGYGTDFTLTISSLQPEDVAVYYCQQDYNSPRTFGQGTKLEVKRGGGGSGGGGSGGGGSSGGGSQVQLVQSGAEVKKPGASVKVSCTASGYTFTHYGMNWVRQAPGKGLEWMGWINTYTGEPTYADKFKDRFTLSLETSASTVYMELTSLTSDDTAVYYCARERGDAMDYWGQGTLVTVSS | 2.7 |
